To fix the notation:
B1: LINE1-mini (parent)
chain: GGCAGAGCUCAACACAGCGUGGCAAAGUGGCUGUGGCUAGACUGCC

Variants of B1 are the subject of the data set. The data set is described as follows: self-cleavage, relative activity (ratio to wild type); higher = more cleavage; in vitro, sequencing; the parent is a self-cleaving ribozyme.
Turning to GGCAGAGCUCAACAUAGCGUGGCAAAGUGGCUGUGGCUAGGCUGCC [C15U A41G], the self-cleavage was found to be 0.25. With GGCAGAGCUCAACAUAGCGUGGCAAAGUGGCUGUGGCUAGCCUGCC [C15U A41C], the self-cleavage worked out at 0.08. The value for GGCAGAGCUCAACAUAGCGUGGCAAAGUGGCUGUGGCUAGUCUGCC [C15U A41U] was 0.33; that for GGCAGAGCUCAACAUACCGUGGCAAAGUGGCUGUGGCUAGACUGCC [C15U G17C] was 0.19.

As for GGCAGAGCUCAACAUAACGUGGCAAAGUGGCUGUGGCUAGACUGCC [C15U G17A], the self-cleavage came out at 0.07. As for GGCAGAGCUCAACAUAUCGUGGCAAAGUGGCUGUGGCUAGACUGCC [C15U G17U], the self-cleavage came to 0.11. The value for GGCAGAGCUCAACAGAGCGUGGCAAACUGGCUGUGGCUAGACUGCC [C15G G27C] was 0.05. With GGCAGAGCUCAACAGAGCGUGGCAAAAUGGCUGUGGCUAGACUGCC [C15G G27A], the self-cleavage came out at 0.05. Next, GGCAGAGCUCAACAGAGCGUGGCAAAUUGGCUGUGGCUAGACUGCC [C15G G27U]: 0.04.

With GGCAGAGCUCAACAUAGCGUGGCAAAGUGGCUGUGGCUUGACUGCC [C15U A39U], the self-cleavage turned out to be 0.72. Consider GGCAGAGCUCAACAUAGCGUGGCAAAGUGGCUGUGGCUGGACUGCC [C15U A39G], for which the self-cleavage was 0.11. Next, GGCAGAGCUCAACAUAGCGUGGCAAAGUGGCUGUGGCUCGACUGCC [C15U A39C]: 0.18; GGCAGAGCUCAACAUAGCGUGGCAAAGUGGCUGUGGCUAGACUGCC [C15U]: 1.03; GGCAGAGCUCAACAGAGCGUGGCAAAGUGGCUGCGGCUAGACUGCC [C15G U34C]: 0.03. The value for GGCAGAGCUCAACAGAGCGUGGCAAAGUGGCUGAGGCUAGACUGCC [C15G U34A] was 0.52; that for GGCAGAGCUCAACAGAGCGUGGCAAAGUGGCUGGGGCUAGACUGCC [C15G U34G] was 0.02. Next, GGCAGAGCUCAACAGAGCGUGGCAAAGUGGCUGUGGCAAGACUGCC [C15G U38A]: 0.03. For the variant GGCAGAGCUCAACAGAGCGUGGCAAAGUGGCUGUGGCCAGACUGCC [C15G U38C], the self-cleavage was found to be 0.03. Next, GGCAGAGCUCAACAGAGCGUGGCAAAGUGGCUGUGGCGAGACUGCC [C15G U38G]: 0.03; GGCAGAGCUCAACAUAGCGUGGCAAAGUGGCUGUGGAUAGACUGCC [C15U C37A]: 0.11; GGCAGAGCUCAACAUAGCGUGGCAAAGUGGCUGUGGUUAGACUGCC [C15U C37U]: 0.11. For GGCAGAGCUCAACAUAGCGUGGCAAAGUGGCUGUGGGUAGACUGCC [C15U C37G], the self-cleavage was found to be 0.08. The value for GGCAGAGCUCAACAGAGCGUUGCAAAGUGGCUGUGGCUAGACUGCC [C15G G21U] was 0.07. The value for GGCAGAGCUCAACAGAGCGUAGCAAAGUGGCUGUGGCUAGACUGCC [C15G G21A] was 0.08. As for GGCAGAGCUCAACAGAGCGUCGCAAAGUGGCUGUGGCUAGACUGCC [C15G G21C], the self-cleavage worked out at 0.17. The value for GGCAGAGCUCAACAGAGCGAGGCAAAGUGGCUGUGGCUAGACUGCC [C15G U20A] was 0.09; that for GGCAGAGCUCAACAGAGCGGGGCAAAGUGGCUGUGGCUAGACUGCC [C15G U20G] was 0.03; that for GGCAGAGCUCAACAGAGCGCGGCAAAGUGGCUGUGGCUAGACUGCC [C15G U20C] was 0.03.

Take GGCAGAGCUCAACAUAGCGUGGCACAGUGGCUGUGGCUAGACUGCC [C15U A25C]: the self-cleavage was 1.

For the variant GGCAGAGCUCAACAUAGCGUGGCAUAGUGGCUGUGGCUAGACUGCC [C15U A25U], the self-cleavage worked out at 0.77. Turning to GGCAGAGCUCAACAUAGCGUGGCAGAGUGGCUGUGGCUAGACUGCC [C15U A25G], the self-cleavage is 0.17.

Regarding GGCAGAGCUCAACAGAGCGUGGCAAAGUGUCUGUGGCUAGACUGCC [C15G G30U], the self-cleavage was determined as 0.03. Next, GGCAGAGCUCAACAGAGCGUGGCAAAGUGACUGUGGCUAGACUGCC [C15G G30A]: 0.07; GGCAGAGCUCAACAGAGCGUGGCAAAGUGCCUGUGGCUAGACUGCC [C15G G30C]: 0.08; GGCAGAGCUCAACAGAGCGUGGCAAAGUGGCUGUGGCUAGACUCCC [C15G G44C]: 0.04. Next, GGCAGAGCUCAACAGAGCGUGGCAAAGUGGCUGUGGCUAGACUUCC [C15G G44U]: 0.03; GGCAGAGCUCAACAGAGCGUGGCAAAGUGGCUGUGGCUAGACUACC [C15G G44A]: 0.03; GGCAGAGCUCAACAUAGCGUUGCAAAGUGGCUGUGGCUAGACUGCC [C15U G21U]: 1.46. GGCAGAGCUCAACAUAGCGUAGCAAAGUGGCUGUGGCUAGACUGCC [C15U G21A]: the self-cleavage was found to be 1.23. Regarding GGCAGAGCUCAACAUAGCGUCGCAAAGUGGCUGUGGCUAGACUGCC [C15U G21C], the self-cleavage is 1.81. Regarding GGCAGAGCUCAACAUAGCGUGGCUAAGUGGCUGUGGCUAGACUGCC [C15U A24U], the self-cleavage was 0.32. Next, GGCAGAGCUCAACAUAGCGUGGCCAAGUGGCUGUGGCUAGACUGCC [C15U A24C]: 0.25. Next, GGCAGAGCUCAACAUAGCGUGGCGAAGUGGCUGUGGCUAGACUGCC [C15U A24G]: 1.53; GGCAGAGCUCAACAUAGCGUGGCAAAGUGGCUGUGGCUAGACUGGC [C15U C45G]: 0.2. GGCAGAGCUCAACAUAGCGUGGCAAAGUGGCUGUGGCUAGACUGUC [C15U C45U]: the self-cleavage was 0.79. Next, GGCAGAGCUCAACAUAGCGUGGCAAAGUGGCUGUGGCUAGACUGAC [C15U C45A]: 0.21; GGCAGAGCUCAACAGAGCGUGGCAAAGUGGCAGUGGCUAGACUGCC [C15G U32A]: 0.05; GGCAGAGCUCAACAGAGCGUGGCAAAGUGGCGGUGGCUAGACUGCC [C15G U32G]: 0.04. The value for GGCAGAGCUCAACAGAGCGUGGCAAAGUGGCCGUGGCUAGACUGCC [C15G U32C] was 0.03. In the case of GGCAGAGCUCAACAUAGCGUGGCAAUGUGGCUGUGGCUAGACUGCC [C15U A26U], the self-cleavage came to 0.74. Next, GGCAGAGCUCAACAUAGCGUGGCAACGUGGCUGUGGCUAGACUGCC [C15U A26C]: 1.74. The value for GGCAGAGCUCAACAUAGCGUGGCAAGGUGGCUGUGGCUAGACUGCC [C15U A26G] was 0.88. The value for GGCAGAGCUCAACAUAGUGUGGCAAAGUGGCUGUGGCUAGACUGCC [C15U C18U] was 0.47; that for GGCAGAGCUCAACAUAGGGUGGCAAAGUGGCUGUGGCUAGACUGCC [C15U C18G] was 0.07; that for GGCAGAGCUCAACAUAGAGUGGCAAAGUGGCUGUGGCUAGACUGCC [C15U C18A] was 0.09.

On to GGCAGAGCUCAACAGAGCGUGGCAAAGUGGCUGUGCCUAGACUGCC [C15G G36C], for which the self-cleavage is 0.03.

Source of the values: the RNAGym collection of RNA variant scans (doi:10.7554/elife.90254).
